Measured values as given in patent US20260102505A1, “ANTI-CD45-IGN ANTIBODY DRUG CONJUGATES AND USES THEREOF” (Vor Biopharma Inc., priority 2022, published 2026).

Each molecule was assayed on human CD45, cyno CD45 and rhesus CD45 (assay: CD45 binding / species cross-reactivity of antibodies).
Design: species or system cynomolgus

Molecule	cross-reactivity with CD45 of species (in words)
AbA: humanized and affinity matured anti-CD45 antibody, VH SEQ ID NO:71, VL SEQ ID NO:75 (antibody, V domains shown) VH: EVQLLESGGGLVQPGGSLRLSCAASGFTFNNYWMTWVRQAPGKGLEWVSSISSSGGSIYYPDRVKGRFTISRDNSKNTLYLQMNSLRAEDTAVYYCARDERWAGAMDAWGQGTTVTVSS VL: DIQMTQSPSSLSASVGDRVTITCKASQNINKNLDWYQQKPGKAPKLLIYETNNLQTGVPSRFSGSGSGTDFTLTISSLQPEDFATYYCYQHNSRFTFGQGTKLEIK	cross reacts with human CD45, cyno CD45 and rhesus CD45
Ab2: human anti-CD45 antibody, VH SEQ ID NO:11, VL SEQ ID NO:15 (antibody, V domains shown) VH: EVQLVESGGGLVQPGGSLRLSCAASGFTFEAYSMNWVRQAPGKGLEWVSYISLSGATIHYADSVKGRFTISRDNAKNSLYLQMNSLRAEDTAVYYCARGGQYYYDSSDYGEVAFDIWGQGTMVTVSS VL: DIVMTQSPLSLPVTPGEPASISCRSSQSLVSNGYNYLDWYLQKPGQSPQLLIYFGSSRASGVPDRFSGSGSGTDFTLKISRVEAEDVGVYYCMQRRRTPWSFGGGTKVEIK	cross reacts with human CD45, cyno CD45 and rhesus CD45
Ab3: human anti-CD45 antibody, VH SEQ ID NO:21, VL SEQ ID NO:25 (antibody, V domains shown) VH: QVQLVESGGGLVKPGGSLRLSCAASGFTFGGYSMNWVRQAPGKGLEWVSYISISGATITYADSVKGRFTISRDNAKNSLYLQMNSLRAEDTAVYYCARGGQYYYDSSDYGEVAFDIWGQGTMVTVSS VL: DIVMTQSPLSLPVTPGEPASISCRSSQSLVSNGYNYLDWYLQKPGQSPQLLIYFGSSRASGVPDRFSGSGSGTDFTLKISRVEAEDVGVYYCMQRRRTPPFTFGGGTKVEIK	cross reacts with human CD45, cyno CD45 and rhesus CD45
Ab6: human anti-CD45 antibody, VH SEQ ID NO:51, VL SEQ ID NO:55 (antibody, V domains shown) VH: EVQLVESGGGLVQPGGSLRLSCAASGFTFEAYSMNWVRQAPGKGLEWVSYISLSGATIHYADSVKGRFTISRDNAKNSLYLQMNSLRAEDTAVYYCARGGQYYYTSSDYGEVAFDIWGQGTLVTVSS VL: DIVLTQSPLSLPVTPGEPASISCRSSQSLVSSGYNYLDWYLQKPGQSPQLLIYFGSSRASGVPDRFSGSGSGTDFTLKISRVEAEDVGVYYCMQRRRTPWSFGGGTKVEIK	cross reacts with human CD45, cyno CD45 and rhesus CD45
Ab7: human anti-CD45 antibody, VH SEQ ID NO:61, VL SEQ ID NO:65 (antibody, V domains shown) VH: QVQLVESGGGLVKPGGSLRLSCAASGFTFGGYSMNWVRQAPGKGLEWVSYISISGATITYADSVKGRFTISRDNAKNSLYLQMNSLRAEDTAVYYCARGGQYYYDSSDYGEVAFDIWGQGTMVTVSS VL: DIVMTQSPLSLPVTPGEPASISCRSSQSLVSSGYNYLDWYLQKPGQSPQLLIYFGSSRASGVPDRFSGSGSGTDFTLKISRVEAEDVGVYYCMQRRRTPPFTFGGGTKVEIK	cross reacts with human CD45, cyno CD45 and rhesus CD45
Ab4: human anti-CD45 antibody, VH SEQ ID NO:31, VL SEQ ID NO:35 (antibody, V domains shown) VH: EVQLVESGGGLVQPGGSLRLSCAASGFTFEAYSMNWVRQAPGKGLEWVSYISLSGATIHYADSVKGRFTISRDNAKNSLYLQMNSLRAEDTAVYYCARGGQYYYTSSDYGEVAFDIWGQGTMVTVSS VL: DIVMTQSPLSLPVTPGEPASISCRSSQSLVSNGYNYLDWYLQKPGQSPQLLIYFGSSRASGVPDRFSGSGSGTDFTLKISRVEAEDVGVYYCMQRRRTPWSFGGGTKVEIK	cross reacts with human CD45, cyno CD45 and rhesus CD45
AbB: humanized and affinity matured anti-CD45 antibody, VH SEQ ID NO:81, VL SEQ ID NO:85 (antibody, V domains shown) VH: EVQLVESGGGLVQPGGSLRLSCAASGFTFTNFWMAWIRQAPGKGLEWVASISSSGGSIYYPDSVKDRFTISRDNSKNTLYLQMNSLRAEDTAVYYCVKFHHYSGGGDAWGQGTLVTVSS VL: DIQMTQSPSSLSASVGDRVTITCKASQNINKYLDWYQQKPGKAPKLLIHYTNNLHTGIPSRFSGSGSGTDYTLTISSLQPEDFATYYCLQHSSRWTFGGGTKVEIK	cross reacts with human CD45, cyno CD45 and rhesus CD45
AbC: humanized and affinity matured anti-CD45 antibody, VH SEQ ID NO:91, VL SEQ ID NO:95 (antibody, V domains shown) VH: EVQLVESGGGLVQPGGSLRLSCAASGFTFNNYWMTWVRQAPGKGLEWVSSISSSGGSIYYPDSVKDRFTISRDNAKNSLYLQMNSLRAEDMAVYYCARLYYYDGGGDAWGQGTLVTVSS VL: GIQMTQSPSSLSASVGDRVTITCKASQDINKYLDWYQQKPGKAPKLLIYNTNNLHTGIPSRFSGSGSGTDYTLTISSLQPEDFATYYCLQHISRWTFGGGTKVEIK	cross reacts with human CD45, cyno CD45 and rhesus CD45
